Test results: article PMC5735850 (The Plant journal : for cell and molecular biology, 2017)
Substitutions are numbered along the chain they refer to. In names and notes the source's numbering stands.

T1: AtFUT1 (Arabidopsis thaliana, UniProt Q9SWH5)
T1 sequence (Q9SWH5 84-558 limits assumed): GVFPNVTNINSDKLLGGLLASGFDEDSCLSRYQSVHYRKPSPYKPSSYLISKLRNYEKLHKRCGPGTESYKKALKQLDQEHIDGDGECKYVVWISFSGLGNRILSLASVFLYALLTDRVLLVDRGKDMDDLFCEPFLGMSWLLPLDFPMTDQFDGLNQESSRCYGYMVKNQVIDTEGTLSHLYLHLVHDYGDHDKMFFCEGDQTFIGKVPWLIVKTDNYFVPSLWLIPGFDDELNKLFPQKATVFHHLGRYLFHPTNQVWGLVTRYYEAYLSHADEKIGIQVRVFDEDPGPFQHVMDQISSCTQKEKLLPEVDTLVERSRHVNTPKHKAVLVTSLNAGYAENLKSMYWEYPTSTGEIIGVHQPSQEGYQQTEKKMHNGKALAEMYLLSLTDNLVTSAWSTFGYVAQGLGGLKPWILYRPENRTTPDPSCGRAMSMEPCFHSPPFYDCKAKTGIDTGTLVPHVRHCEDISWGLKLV

B1: AtFUT1 (Arabidopsis thaliana; Q452A) (protein)
chain: T1 sequence (Q9SWH5 84-558 limits assumed) with Q369A
B2: AtFUT1 (Arabidopsis thaliana; Y486F) (protein)
chain: T1 sequence (Q9SWH5 84-558 limits assumed) with Y403F
B3: AtFUT1 (Arabidopsis thaliana) (protein)
chain: T1 sequence (Q9SWH5 84-558 limits assumed)
B4: AtFUT1 (Arabidopsis thaliana; H523A) (protein)
chain: T1 sequence (Q9SWH5 84-558 limits assumed) with H440A
B5: AtFUT1 (Arabidopsis thaliana; D550A) (protein)
chain: T1 sequence (Q9SWH5 84-558 limits assumed) with D467A
B6: AtFUT1 (Arabidopsis thaliana; D300A) (protein)
chain: T1 sequence (Q9SWH5 84-558 limits assumed) with D217A

Key:
AtFUT1 = target: T1, AtFUT1; experiment: real-time 1H NMR of fucosylation; type: biochemical; conditions: 0.4 mM XLLG, 0.4 mM GDP-Fuc, 4.7 μM enzyme, pH 6.8 in D2O, 25°C
[1] = substrate: C[C@@H]1O[C@H](OP(=O)(O)OP(=O)(O)OC[C@H]2O[C@@H](n3cnc4c(=O)[nH]c(N)nc43)[C@H](O)[C@@H]2O)[C@@H](O)[C@H](O)[C@@H]1O; experiment: GDP-Glo luminescent GDP release, Michaelis-Menten fit; type: biochemical, Arabidopsis thaliana; conditions: donor varied, 750 μM XXLG, 75 mM HEPES pH 6.8, 28°C

Molecule	real-time 1H NMR of fucosylation (AtFUT1)	Km [1]	kcat [1] [s⁻¹]
OC[C@H]1O[C@@H](O[C@H]2[C@@H](OC[C@H]3O[C@@H](O[C@H]4[C@H](O)[C@@H](O)[C@H](O[C@H]5[C@H](O)[C@@H](O)C(O)O[C@@H]5CO)O[C@@H]4CO[C@H]4OC[C@@H](O)[C@H](O)[C@H]4O[C@@H]4O[C@H](CO)[C@H](O)[C@H](O)[C@H]4O)[C@H](O)[C@@H](O)[C@@H]3O[C@@H]3O[C@H](CO[C@H]4OC[C@@H](O)[C@H](O)[C@H]4O)[C@@H](O)[C@H](O)[C@H]3O)OC[C@@H](O)[C@@H]2O)[C@H](O)[C@@H](O)[C@H]1O (stereo partly shown) [XLLG]	The xyloglucan oligosaccharide XLLG (Figure 1a), composed of nine glycosyl residues		
B1		61.77 (±10.5) μM	0.00533 ± 0.000283
B2		60.44 (±12.3) μM	0.0016 ± 0.0001
B3		25.32 (±4.2) μM	0.0633 ± 0.000833
B4		84.28 (±18.3) μM	0.00123 ± 8.33e-05
B5		55.33 (±6.7) μM	0.00343 ± 0.000167
B6		40.1 (±7.5) μM	0.00532 ± 0.000267
